Our source for the Kd values is the Immune Epitope Database (IEDB).

Test [1] has as its target HLA-B*40:01. Description: IEDB peptide-MHC binding, purified MHC/competitive/radioactivity; filed as Kd, often an IC50 or EC50 that approximates it; ≥ and ≤ were set here for values at or beyond the usual limits of such assays.
In the next test the target is HLA-A*32:01. The test is described as above.
The target in another test is HLA-A*30:02. Described as above.
Test [2] concerns the target HLA-A*01:01. Described as above.
In the next test the target is HLA-A*30:01. The test is described as above.
Another test addresses HLA-A*26:01. The test is described as above.
The next test addresses HLA-A*29:02. Described as above.
The next test concerns the target HLA-B*48:01. Description: IEDB peptide-MHC binding, purified MHC/direct/fluorescence; filed as Kd, often an IC50 or EC50 that approximates it; ≥ and ≤ were set here for values at or beyond the usual limits of such assays.
For test [3], the target named is HLA-A*02:01. Kind of test: IEDB peptide-MHC binding, purified MHC/competitive/fluorescence; filed as Kd, often an IC50 or EC50 that approximates it; ≥ and ≤ were set here for values at or beyond the usual limits of such assays.
A further test deals with HLA-B*08:01. Kind of test: IEDB peptide-MHC binding, purified MHC/competitive/radioactivity; filed as Kd, often an IC50 or EC50 that approximates it; ≥ and ≤ were set here for values at or beyond the usual limits of such assays. The following applies: source organism: Vaccinia virus WR.
The next test addresses HLA-B*51:01. The description is as above.
Another test addresses HLA-B*27:05. Description: IEDB peptide-MHC binding, purified MHC/direct/fluorescence; filed as Kd, often an IC50 or EC50 that approximates it; ≥ and ≤ were set here for values at or beyond the usual limits of such assays. The conditions noted are these: source organism: Orthohantavirus hantanense.
The target of a further test is HLA-B*58:01. The description is as above. The conditions noted are these: source organism: Yellow fever virus.
The target of the next test is HLA-B*15:01. The description is as above. The conditions noted are these: source organism: Yellow fever virus.
Test [4] addresses HLA-B*44:02. Described as above. The following applies: source organism: Yellow fever virus.
Test [5] addresses HLA-A*03:01. The test is described as above. The following applies: source organism: Yellow fever virus.
The target in another test is HLA-B*57:01. Described as above. The conditions noted are these: source organism: Yellow fever virus.
Test [6] has as its target HLA-A*01:01. Described as above. The conditions noted are these: source organism: Yellow fever virus.
In the next test the target is HLA-B*46:01. Described as above. The conditions noted are these: source organism: Yellow fever virus.
In another test the target is HLA-A*69:01. Described as above. The conditions noted are these: source organism: Yellow fever virus.
For the next test, the target named is HLA-B*07:02. The test is described as above. The conditions noted are these: source organism: Yellow fever virus.
Test [7] addresses HLA-B*40:01. Described as above. The following applies: source organism: Yellow fever virus.
Test [8] has as its target HLA-A*02:01. The description is as above. The conditions noted are these: source organism: Yellow fever virus.
For the next test, the target named is HLA-A*23:01. Kind of test: IEDB peptide-MHC binding, purified MHC/competitive/radioactivity; filed as Kd, often an IC50 or EC50 that approximates it; ≥ and ≤ were set here for values at or beyond the usual limits of such assays.
The next test concerns the target HLA-A*24:02. The test is described as above.
The next test concerns the target HLA-A*68:01. Described as above. The conditions noted are these: source organism: Triticum aestivum.
Test [9] concerns the target HLA-A*03:01. The description is as above. The conditions noted are these: source organism: Triticum aestivum.
For another test, the target named is HLA-A*33:01. The test is described as above. The following applies: source organism: Triticum aestivum.
For another test, the target named is HLA-A*11:01. The test is described as above. The conditions noted are these: source organism: Triticum aestivum.
The target of a further test is HLA-A*31:01. The description is as above. The following applies: source organism: Triticum aestivum.
Test [10] addresses HLA-B*44:02. The description is as above. The conditions noted are these: source organism: Dengue virus 3 Martinique/1243/1999.
In the next test the target is HLA-B*44:03. Described as above. The conditions noted are these: source organism: Dengue virus 3 Martinique/1243/1999.
Another test has as its target HLA-A*02:03. The description is as above. The following applies: source organism: Dengue virus 2 Jamaica/1409/1983.
Where [11] appears, read: source organism: Dengue virus 2 Jamaica/1409/1983.
[12] abbreviates: source organism: Mammarenavirus guanaritoense.
Setting [13] is: source organism: Dengue virus 3 Martinique/1243/1999.
Where [14] appears, read: source organism: Vaccinia virus Copenhagen.
Setting [15] is: source organism: Mammarenavirus brazilense.
[16] abbreviates: source organism: Mammarenavirus choriomeningitidis.
The mark [17] stands for this setting: source organism: Vaccinia virus WR.
[18] abbreviates: source organism: Dengue virus 1 Brazil/97-11/1997.
The mark [19] stands for this setting: source organism: Yellow fever virus.
The mark [20] stands for this setting: source organism: Lymphocytic choriomeningitis virus (strain Armstrong).
The mark [21] stands for this setting: source organism: Mammarenavirus whitewaterense.
The mark [22] stands for this setting: source organism: Triticum aestivum.

The term Kd denotes a measure of binding affinity in units of concentration. As to EEEEQTLTIL, the Kd with HLA-B*40:01 [1] (setting [11]) was 10.4 nM.
Regarding CSKILDLCY, the Kd was at least 50900 nM with HLA-A*32:01 (setting [12]); 664 nM in the test with HLA-A*30:02 (setting [12]); 53.1 nM with HLA-A*01:01 [2] (setting [12]); 14900 nM with HLA-A*30:01 (setting [12]); at least 54600 nM with HLA-A*26:01 (setting [12]); 3620 nM with HLA-A*29:02 (setting [12]).
On to SRAWNVWEVE, for which the equilibrium dissociation constant (Kd) in the test with HLA-A*32:01 (setting [13]) is at least 26500 nM.
For the sequence AQDFQSLTI, the dissociation constant (Kd) with HLA-A*32:01 (setting [14]) amounted to 67.6 nM.
For ELLNTPYCNY, the dissociation constant Kd with HLA-A*32:01 (setting [15]) was at least 39900 nM; with HLA-A*30:02 (setting [15]) it was 206 nM; in the test with HLA-A*01:01 [2] (setting [15]), 12300 nM; with HLA-A*30:01 (setting [15]), at least 70400 nM; in the test with HLA-A*26:01 (setting [15]), 275 nM; in the test with HLA-A*29:02 (setting [15]) it was 837 nM.
In the test with HLA-B*48:01 (source organism: Mycobacterium tuberculosis str. Haarlem), DDVARAWSL returned a Kd of at least 20000 nM.
For the sequence VTERIFREY, the Kd is 12900 nM in the test with HLA-A*32:01 (setting [16]); 876 nM in the test with HLA-A*30:02 (setting [16]); 8.62 nM with HLA-A*01:01 [2] (setting [16]); 4010 nM with HLA-A*30:01 (setting [16]); at least 44900 nM in the test with HLA-A*26:01 (setting [16]); 8690 nM with HLA-A*29:02 (setting [16]).
Turning to YRLRGEARK, the Kd with HLA-B*48:01 (source organism: Dengue virus 1 Singapore/S275/1990) is at least 20000 nM.
As to SMSEIINNI, the dissociation constant (Kd) in the test with HLA-A*32:01 (setting [17]) worked out at 245 nM.
In turn, MLVSQALNSV yielded a Kd in the test with HLA-A*02:01 [3] (setting [14]) of 3.4 nM.
As to MLMNHVANF, the results for the equilibrium dissociation constant (Kd) with HLA-A*32:01 (setting [17]) and with HLA-B*08:01 were 8.28 nM and 3.33 nM, respectively.
Turning to MAFIAFLRFL, the dissociation constant Kd with HLA-B*51:01 (setting [18]) was 16100 nM.
Regarding GSAKLQWFVE, in the test with HLA-A*32:01 (setting [13]), the Kd was at least 69900 nM.
As to KRIAPMLYK, the dissociation constant (Kd) with HLA-B*48:01 (source organism: Orthohantavirus hantanense) was at least 20000 nM; with HLA-B*27:05, 40.7 nM.
On to KTIYLLSLF, for which, in the test with HLA-A*32:01 (setting [17]), the Kd is 10.3 nM.
Consider LLFLEDVEP, for which, in the test with HLA-A*02:01 [3] (source organism: Horsepox virus), the dissociation constant Kd was at least 20000 nM.
For MTNTMRNAI, the Kd with HLA-A*32:01 (setting [17]) was found to be 106 nM.
As to LPLFIFSLK, the Kd with HLA-B*51:01 (setting [13]) was 13100 nM.
On to VLEDVQAAGI, for which the Kd with HLA-A*02:01 [3] (setting [14]) was 232 nM.
On to AQVTCLKFL, for which the dissociation constant (Kd) in the test with HLA-B*48:01 (source organism: Cryptosporidium parvum Iowa II) came to 1670 nM.
Turning to ERWFVRNPF, the Kd with HLA-B*58:01, with HLA-B*15:01, with HLA-B*48:01 (setting [19]), with HLA-B*44:02 [4], in the test with HLA-A*03:01 [5] and with HLA-B*57:01 was at least 20000 nM each time. In addition, the Kd with HLA-A*01:01 [6], in the test with HLA-B*46:01, with HLA-A*69:01, with HLA-B*07:02, with HLA-B*40:01 [7] and in the test with HLA-A*02:01 [8] was at least 20000 nM in each case.
Turning to KVNTTIARY, the Kd with HLA-A*32:01 (setting [20]) worked out at 634 nM; in the test with HLA-A*30:02 (setting [20]), 5.93 nM; with HLA-A*01:01 [2] (setting [20]) it was 1630 nM; with HLA-A*30:01 (setting [20]), 934 nM; in the test with HLA-A*26:01 (setting [20]), 7460 nM; with HLA-A*29:02 (setting [20]) it was 100 nM.
Regarding ITANPIVTD, in the test with HLA-A*32:01 (setting [18]), the equilibrium dissociation constant (Kd) came to 2420 nM.
The sequence AMLNGLIYV gave a Kd with HLA-A*02:01 [3] (source organism: Variola virus) of 1.3 nM.
On to IRWYISLSF, for which the dissociation constant Kd with HLA-A*32:01 (setting [14]) came out at 1170 nM.
For the sequence RMLLNRFTM, the equilibrium dissociation constant (Kd) with HLA-A*32:01 (setting [18]) came out at 19.4 nM.
With RCWLTKNGSY, the Kd was at least 69900 nM in the test with HLA-A*32:01 (setting [21]); at least 70000 nM in the test with HLA-A*23:01 (setting [21]); 57.5 nM with HLA-A*30:02 (setting [21]); 18900 nM with HLA-A*01:01 [2] (setting [21]); at least 70300 nM in the test with HLA-A*24:02 (setting [21]); 3790 nM with HLA-A*30:01 (setting [21]). The dissociation constant Kd in the test with HLA-A*26:01 (setting [21]) was at least 23300 nM; in the test with HLA-A*29:02 (setting [21]) it was 8920 nM.
Consider SFQQPQQQY, for which the equilibrium dissociation constant (Kd) is at least 77700 nM in the test with HLA-A*68:01; at least 78000 nM with HLA-A*03:01 [9]; at least 77800 nM in the test with HLA-A*23:01 (setting [22]); at least 77700 nM with HLA-A*33:01; at least 63200 nM in the test with HLA-A*30:02 (setting [22]); at least 77900 nM with HLA-A*11:01. The Kd is at least 68900 nM with HLA-A*01:01 [2] (setting [22]); at least 77600 nM with HLA-A*24:02 (setting [22]); at least 43700 nM with HLA-A*26:01 (setting [22]); 84.1 nM in the test with HLA-A*29:02 (setting [22]); at least 77900 nM in the test with HLA-A*31:01.
For the sequence LEFFMMVLL, the dissociation constant (Kd) with HLA-A*32:01 (setting [13]) was 2040 nM; with HLA-B*44:02 [10], 10100 nM; with HLA-B*44:03, 2640 nM; in the test with HLA-B*40:01 [1] (setting [13]), 13.1 nM.
Regarding TEEIAVQNWL, the dissociation constant (Kd) with HLA-B*40:01 [1] (setting [11]) worked out at 104 nM.
Turning to SRLTYQWHK, the Kd with HLA-B*48:01 (setting [19]) is at least 20000 nM.
In the test with HLA-B*48:01 (source organism: Salmonella enterica subsp. enterica serovar Paratyphi A str. ATCC 9150), AQAELDAAF returned a Kd of 696 nM.
Consider LEFFMMVLLI, for which the Kd was determined as 9210 nM with HLA-B*44:03 and 12200 nM with HLA-B*40:01 [1] (setting [13]).
For the sequence SETQHGTIL, the equilibrium dissociation constant (Kd) with HLA-B*44:03 came out at 127 nM; with HLA-B*40:01 [1] (setting [13]), 3.95 nM.
For the sequence FLTIPPTAGI, the Kd in the test with HLA-B*51:01 (setting [11]) is 343 nM; with HLA-A*02:03 it was 9.79 nM.
